# What was measured:
# [1] = target: the molecule itself; assay: AUC; sedimentation velocity, 40000 rpm, 20°C, 10 mM Tris-HCl, absorbance at 280 nm, c(s) by Sedfit; protein at 1 mg/mL; dimer to monomers
# [2] = target: the molecule itself; assay: AUC; sedimentation velocity, 40000 rpm, 20°C, 10 mM Tris-HCl, absorbance at 280 nm, c(s) by Sedfit; protein at 0.1 mg/mL; dimer to monomers
# [3] = target: the molecule itself; assay: AUC; sedimentation velocity, 40000 rpm, 20°C, 10 mM Tris-HCl, absorbance at 280 nm, c(s) by Sedfit; protein at 0.1 mg/mL with 10 mM guanidine hydrochloride; dimer to monomers
protein,measurement,setting,value
"human cytosolic aminopeptidase P, wild-type (enzyme, UniProt Q9NQW7 1-623, looked up, human cytosolic aminopeptidase P (hcAMPP), encoded by XPNPEP1, residues M1 to H623, cloned into pET-28a (NdeI/HindIII); The His-tag is thrombin cleavable; also called hcAMPP; wild-type hcAMPP; source: E. coli Rosetta (DE3), purified (Ni2+ chelating column)) MPPKVTSELLRQLRQAMRNSEYVTEPIQAYIIPSGDAHQSEYIAPCDCRRAFVSGFDGSAGTAIITEEHAAMWTDGRYFLQAAKQMDSNWTLMKMGLKDTPTQEDWLVSVLPEGSRVGVDPLIIPTDYWKKMAKVLRSAGHHLIPVKENLVDKIWTDRPERPCKPLLTLGLDYTGISWKDKVADLRLKMAERNVMWFVVTALDEIAWLFNLRGSDVEHNPVFFSYAIIGLETIMLFIDGDRIDAPSVKEHLLLDLGLEAEYRIQVHPYKSILSELKALCADLSPREKVWVSDKASYAVSETIPKDHRCCMPYTPICIAKAVKNSAESEGMRRAHIKDAVALCELFNWLEKEVPKGGVTEISAADKAEEFRRQQADFVDLSFPTISSTGPNGAIIHYAPVPETNRTLSLDEVYLIDSGAQYKDGTTDVTRTMHFGTPTAYEKECFTYVLKGHIAVSAAVFPTGTKGHLLDSFARSALWDSGLDYLHGTGHGVGSFLNVHEGPCGISYKTFSDEPLEAGMIVTDEPGYYEDGAFGIRIENVVLVVPVKTKYNFNNRGSLTFEPLTLVPIQTKMIDVDSLTDKECDWLNNYHLTCRDVIGKELQKQGRQEALEWLIRETQPISKQH",stoichiometry N,[1],2
"human cytosolic aminopeptidase P, R535A mutant (enzyme, UniProt Q9NQW7 1-623, looked up, human cytosolic aminopeptidase P (hcAMPP), encoded by XPNPEP1, residues M1 to H623, with R535A made by QuikChange mutagenesis of pET28a-hcAMPP; The His-tag is thrombin cleavable; no cleavage is described; also called R535A hcAMPP; Arg535Ala hcAMPP; source: E. coli Rosetta (DE3), purified (Ni2+ chelating column)) MPPKVTSELLRQLRQAMRNSEYVTEPIQAYIIPSGDAHQSEYIAPCDCRRAFVSGFDGSAGTAIITEEHAAMWTDGRYFLQAAKQMDSNWTLMKMGLKDTPTQEDWLVSVLPEGSRVGVDPLIIPTDYWKKMAKVLRSAGHHLIPVKENLVDKIWTDRPERPCKPLLTLGLDYTGISWKDKVADLRLKMAERNVMWFVVTALDEIAWLFNLRGSDVEHNPVFFSYAIIGLETIMLFIDGDRIDAPSVKEHLLLDLGLEAEYRIQVHPYKSILSELKALCADLSPREKVWVSDKASYAVSETIPKDHRCCMPYTPICIAKAVKNSAESEGMRRAHIKDAVALCELFNWLEKEVPKGGVTEISAADKAEEFRRQQADFVDLSFPTISSTGPNGAIIHYAPVPETNRTLSLDEVYLIDSGAQYKDGTTDVTRTMHFGTPTAYEKECFTYVLKGHIAVSAAVFPTGTKGHLLDSFARSALWDSGLDYLHGTGHGVGSFLNVHEGPCGISYKTFSDEPLEAGMIVTDEPGYYEDGAFGIAIENVVLVVPVKTKYNFNNRGSLTFEPLTLVPIQTKMIDVDSLTDKECDWLNNYHLTCRDVIGKELQKQGRQEALEWLIRETQPISKQH",stoichiometry N,[1],2
same,dimer:monomer ratio (printed as monomer:dimer 1:0.67),[2],0.67
same,dimer:monomer ratio (printed as monomer:dimer 1:1.5),[3],1.5
"human cytosolic aminopeptidase P, Y527F mutant (enzyme, UniProt Q9NQW7 1-623, looked up, human cytosolic aminopeptidase P (hcAMPP), encoded by XPNPEP1, residues M1 to H623, with Y527F made by QuikChange mutagenesis of pET28a-hcAMPP; The His-tag is thrombin cleavable; no cleavage is described; also called Y527F hcAMPP; Tyr527Phe hcAMPP; source: E. coli Rosetta (DE3), purified (Ni2+ chelating column)) MPPKVTSELLRQLRQAMRNSEYVTEPIQAYIIPSGDAHQSEYIAPCDCRRAFVSGFDGSAGTAIITEEHAAMWTDGRYFLQAAKQMDSNWTLMKMGLKDTPTQEDWLVSVLPEGSRVGVDPLIIPTDYWKKMAKVLRSAGHHLIPVKENLVDKIWTDRPERPCKPLLTLGLDYTGISWKDKVADLRLKMAERNVMWFVVTALDEIAWLFNLRGSDVEHNPVFFSYAIIGLETIMLFIDGDRIDAPSVKEHLLLDLGLEAEYRIQVHPYKSILSELKALCADLSPREKVWVSDKASYAVSETIPKDHRCCMPYTPICIAKAVKNSAESEGMRRAHIKDAVALCELFNWLEKEVPKGGVTEISAADKAEEFRRQQADFVDLSFPTISSTGPNGAIIHYAPVPETNRTLSLDEVYLIDSGAQYKDGTTDVTRTMHFGTPTAYEKECFTYVLKGHIAVSAAVFPTGTKGHLLDSFARSALWDSGLDYLHGTGHGVGSFLNVHEGPCGISYKTFSDEPLEAGMIVTDEPGYFEDGAFGIRIENVVLVVPVKTKYNFNNRGSLTFEPLTLVPIQTKMIDVDSLTDKECDWLNNYHLTCRDVIGKELQKQGRQEALEWLIRETQPISKQH",dimer:monomer ratio,[1],3.4
same,stoichiometry N,[1],2
same,dimer:monomer ratio,[2],1.8

# Source: paper PMC5774706, “Investigation of the proton relay system operative in human cystosolic aminopeptidase P” (PLoS ONE, 2018)
